This is an account of results in patent US20140341881A1 (DERMADIS, published 2014).

The target of test [1] is T1, human kallikrein 2 (hK2) (human, UniProt P20151 25-261). As to the kind of experiment: cell-based or functional assay.
A further test has as its target human kallikrein hK1 (human, UniProt P06870 25-262). As to the kind of experiment: cell-based or functional assay.
For test [2], the target named is T2, human plasma kallikrein (PK) (human, UniProt P03952 20-638). As to the kind of experiment: cell-based or functional assay.
T2 sequence (P03952 20-638 limits assumed): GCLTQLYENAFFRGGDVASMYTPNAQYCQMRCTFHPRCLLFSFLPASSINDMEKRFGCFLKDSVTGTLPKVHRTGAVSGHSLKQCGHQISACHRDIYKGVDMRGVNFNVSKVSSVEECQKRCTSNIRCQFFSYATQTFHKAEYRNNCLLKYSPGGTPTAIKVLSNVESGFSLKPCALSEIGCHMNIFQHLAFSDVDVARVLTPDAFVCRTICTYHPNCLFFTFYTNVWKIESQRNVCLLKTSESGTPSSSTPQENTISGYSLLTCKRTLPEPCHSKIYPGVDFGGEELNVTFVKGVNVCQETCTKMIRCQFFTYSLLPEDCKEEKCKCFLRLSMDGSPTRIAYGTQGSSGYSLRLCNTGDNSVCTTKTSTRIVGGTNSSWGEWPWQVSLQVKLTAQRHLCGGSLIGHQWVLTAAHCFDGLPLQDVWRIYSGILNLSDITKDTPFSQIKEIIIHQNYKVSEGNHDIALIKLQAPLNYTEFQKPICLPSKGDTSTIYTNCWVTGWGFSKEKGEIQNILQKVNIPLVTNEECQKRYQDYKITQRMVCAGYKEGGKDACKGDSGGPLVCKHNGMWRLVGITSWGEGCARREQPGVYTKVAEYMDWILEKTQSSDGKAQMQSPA
Test [3] has as its target urokinase plasminogen activator (uPA) (UniProt P00749 21-431, limits assumed). As to the kind of experiment: cell-based or functional assay.
Test [4] concerns the target T3, human neutrophil elastase (HNE) (human, UniProt P08246 30-247, limits assumed).
T3 sequence (looked up): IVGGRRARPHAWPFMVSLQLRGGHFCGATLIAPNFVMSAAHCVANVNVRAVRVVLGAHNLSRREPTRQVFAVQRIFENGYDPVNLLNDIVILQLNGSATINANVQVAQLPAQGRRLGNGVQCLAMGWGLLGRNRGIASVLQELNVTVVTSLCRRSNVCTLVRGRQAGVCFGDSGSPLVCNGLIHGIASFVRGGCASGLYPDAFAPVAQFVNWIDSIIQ
As to the kind of experiment: cell-based or functional assay.

Test [5] concerns the target T1, human kallikrein 2 (hK2). As to the kind of experiment: progress curve, pseudo-first order, fluorogenic substrate. The method, then:
(§1) Under these conditions, a fixed amount of enzyme (2 nM) was mixed with different concentrations of inhibitor (0-800 nM) and an excess of substrate (10 μM). Each reaction was made in reaction buffer (50 mM Tris pH 7.5, 150 mM NaCl, 0,05% Triton X-100, 0.01% BSA) at 25° C. for 45 min and the rate of product formation was measured using a FLₓ800 fluorescence 96-well microplate reader (Biotek, USA). In this model, inhibition is considered to be irreversible over the course of reaction and the progress of enzyme activity is expressed by product formation (P), beginning at a rate (vz) and is inhibited over time (t) at a first-order rate (kobs), rate constant that is dependent only on inhibitor concentration.

The target in test [6] is T2, human plasma kallikrein (PK). Described as above. The method, then:
as §1

The target in test [7] is T3, human neutrophil elastase (HNE). Described as above. The method, then:
as §1

Test [8] concerns the target T1, human kallikrein 2 (hK2). As to the kind of experiment: residual enzyme activity against [I]o/[E]o, fluorogenic substrate. Here is the method: (§2) The stoichiometry of inhibition (SI) values were determined for the inhibition of rACTWT and its variants with hK2 and different other enzymes. An initial test was made with a molar excess of rACT (100 fold) over hK2, PSA, hK1, chymotrypsin (Chtr), plasma kallikrein (PK), urokinase (uPA) and human neutrophile elastase (HNE) enzymes. The reaction was carried out for 30 min at 25° C. (90 min at 37° C. for PSA) in reaction buffer (50 mM Tris pH 7.5, 150 mM NaCl, 0,05% Triton X-100, 0.01% BSA) and residual enzyme activity was measured by adding fluorescent substrates (Z-Phe-Arg-AMC for hK1, hK2 and PK, Suc-Ala-Ala-Pro-Phe-AMC for Chtr, Z-Gly-Gly-Arg-AMC for uPA, MeOSuc-Ala-Ala-Pro-Val-AMC for HNE, and CFP-TFRSA-YFP (TFRSA SEQ ID NO:137) for PSA). Activity of enzyme in presence of inhibitors was compared to uninhibited reaction. For reactions where an inhibition was observed, SI was determined by incubating different concentrations of recombinant serpins. Using linear regression analysis of fractional activity (velocity of inhibited enzyme reaction/velocity of uninhibited enzyme reaction) versus the molar ratio of the inhibitor to enzyme ([Iₒ]/[Eₒ]), the stoichiometry of inhibition, corresponding to the abscissa intercept, was obtained.

The target in test [9] is T2, human plasma kallikrein (PK). The description is as above. The method, then:
as §2

Test [10] addresses T3, human neutrophil elastase (HNE). Described as above. Here is the method:
as §2

As usually defined, the kon is a measure of how fast the partners come together. A low value points to slower complex formation.

B1: rACT6.1 (other)
chain: MRGSHHHHHHSRHPNSPLDEENLTQENQDRGTHVDLGLASANVDFAFSLYKQLVLKAPDKNVIFSPLSISTALAFLSLGAHNTTLTEILKGLKFNLTETSEAEIHQSFQHLLRTLNQSSDELQLSMGNAMFVKEQLSLLDRFTEDAKRLYGSEAFATDFQDSAAAKKLINDYVKNGTRGKITDLIKDLDSQTMMVLVNYIFFKAKWEMPFDPQDTHQSRFYLSKKKWVMVPMMSLHHLTIPYFRDEELSCTVVELKYTGNASALFILPDQDKMEEVEAMLLPETLKRWRDSLEFREIGELYLPKFSISRDYNLNDILLQLGIEEAFTSKADLSGITGARNLAVSQVVHKAVLDVFEEGTEASAATAVKIMTRSNAVETRTIVRFNRPFLMIIVPTDTQNIFFMSKVTNPKQA
notes: recombinant ACT variant, RSL substrate peptide MTRSN; N-terminal His tag, E. coli TG1; also called MD61; MD 61
B1: the INHIBITION % with human kallikrein 2 (hK2) [1] worked out at 100%; with human kallikrein hK1, 0%; in test [2], 100%; in [3], 0%; in [4], 60%. Besides, the results for the kon (in the test with human kallikrein 2 (hK2) [5]; in [6]; in test [7]) were 3440 M⁻¹ s⁻¹, 8020 M⁻¹ s⁻¹ and 1190 M⁻¹ s⁻¹, respectively. Also, the results for the “SI (stoichiometry of inhibition)” value (with human kallikrein 2 (hK2) [8]; in test [9]; in test [10]) were 19, 16 and 159, respectively.
